Assay results reported in PMC2528576.

Target: respiratory complex IV (S. cerevisiae (endogenous in yeast mitochondria)) (UniProt P00410)
Experiment: co-IP

Sequence of UniProt P00410 (P00410 whole entry, looked up, one chain of several): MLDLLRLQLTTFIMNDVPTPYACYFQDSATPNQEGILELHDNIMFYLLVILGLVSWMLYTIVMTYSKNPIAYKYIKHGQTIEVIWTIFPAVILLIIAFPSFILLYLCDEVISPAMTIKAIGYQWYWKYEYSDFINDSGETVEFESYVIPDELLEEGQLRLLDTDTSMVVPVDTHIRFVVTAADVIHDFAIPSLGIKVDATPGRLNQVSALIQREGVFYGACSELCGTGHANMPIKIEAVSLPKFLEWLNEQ

percent of the total AAC2 content associated with the respiratory supercomplex: 0.5 to 1%
Substance: AAC2, the major ADP/ATP carrier (endogenous) (from UniProt P18239 1-318) (natural protein)
